As usually defined, the Ki is a measure of affinity in units of concentration, obtained from inhibition or displacement. High values mean lower affinity, low ones higher affinity.

Results on 6 molecules are retold here after patent US20240245793A1, “PSD-95 INHIBITORS AND USES THEREOF” (priority 2021, published 2024).

The chains are these.
B1: compound 21, NPEG4-(VETVV)2 fused to L-TAT (Ac-[…]-) (peptide)
peptide: VETVV
chain: […]
modifications: not checked
B2: compound 13, NPEG4-(KETTV)2 fused to L-TAT (Ac-[…]-) (peptide)
peptide: KETTV
chain: […]
modifications: not checked
B3: compound 19, NPEG4-(ISTDV)2 fused to L-TAT (Ac-[…]-) (peptide)
peptide: ISTDV
chain: […]
modifications: not checked
B4: compound 15, NPEG4-(KETVV)2 fused to L-TAT (Ac-[…]-) (peptide)
peptide: KETVV
chain: […]
modifications: not checked
B5: compound 17, NPEG4-(KETRV)2 fused to L-TAT (Ac-[…]-) (peptide)
peptide: KETRV
chain: […]
modifications: not checked
B6: compound 11, NPEG4-(KETLV)2 fused to L-TAT (Ac-[…]-) (peptide)
peptide: KETLV
chain: […]
modifications: not checked

The target of the test is PDZ1-2 of PSD-95 (postsynaptic density protein-95), P78352. The experiment in a line: FP competition against fluorescent dimeric probe, Ki from IC50.
Chain of PDZ1-2 of PSD-95 (postsynaptic density protein-95), P78352 (P78352 61-249 limits assumed): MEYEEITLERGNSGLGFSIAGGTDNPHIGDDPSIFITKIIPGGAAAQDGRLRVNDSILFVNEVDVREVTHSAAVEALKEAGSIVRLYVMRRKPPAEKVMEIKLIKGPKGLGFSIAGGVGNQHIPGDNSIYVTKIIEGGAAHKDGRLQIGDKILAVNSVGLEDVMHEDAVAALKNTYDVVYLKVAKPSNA
B1 showed an inhibitory constant (Ki) of 15.8 nM. To B2 belongs 6.5 nM; to B3, 36.1 nM; to B4, 2.1 nM.

For the molecule B5, the Ki was 6.6 nM.

B6 came in with a Ki of 5.4 nM.
